Assay results from patent US20260176659A1, “IMPROVED METHOD FOR THE PRODUCTION OF NATURAL VANILLIN” (BASE SE, priority 2022, published 2026).

Assay: Bioconversion of eugenol to vanillin: one-pot concurrent cascade EUGO + alkene cleavage oxygenase (5 mM scale)
Type: biochemical
Details: Table 8b, EUGO FD-CFE 1 mg/mL, CO-0X FD-CFE 1 mg/mL, catalase 10 mg/mL, eugenol 5 mM
Experimental: Stock solutions of eugenol (100 mM) were prepared in ethanol or DMSO and stored at −20° C. Unless otherwise stated, the reaction mixtures (0.5 mL) were set up in 1.5 mL glass vials as follows: freeze-dried cell free extract of IECO/CO-XX (3 mg) and EUGO (0.5 mg) were dissolved in the reaction buffer (50 mM glycine-NaOH pH 9.0) containing sodium ascorbate (1 mM), FeSO4 (1 mM) and bovine liver catalase (5 mg, Sigma Aldrich C40). The reaction was initiated by the addition of 0.025 mL eugenol stock (final concentration 5 mM), then incubated at 30° C. and 120 rpm overnight (rotary shaker). The final content of cosolvent was 5% v/v. To improve oxygenation, the vials were placed horizontally. At certain time points, samples (0.2 mL) were quenched with methanol (0.4 mL) and the mixture was centrifuged at 20238 g for 5-10 mins. Finally, the supernatant was analysed by HPLC.
EUGO (0.5 mg CFE), CO-25 (3 mg CFE) and catalase (5 mg, Sigma product #C40) were dissolved in 50 mM Glycine-NaOH pH 9.0 or Tris-HCl pH 8.0 together with FeSO4 (1 mM) and sodium ascorbate (1 mM). Note that the buffer content of the freeze-dried biocatalyst prep was not considered for the assembling of the reaction. The reaction was started by the addition of 5 mM eugenol from a 20× stock in ethanol. The reactions—performed in glass vials—were then incubated at 30° C. and 120 rpm (25 mm shaker). Finally, samples of the reaction mixture were diluted with MeOH and analyzed by HPLC at 280 and 340 nm.

Row | Molecule | Product distribution after 24 hours 2a (%) (pH 8.0) | Product distribution after 24 hours 3a (%) (pH 8.0) | Product distribution after 24 hours 5a (%) (pH 8.0) | Product distribution after 24 hours 2a (%) (pH 9.0) | Product distribution after 24 hours 3a (%) (pH 9.0) | Product distribution after 24 hours 5a (%) (pH 9.0)
1 | CO-16: alkene cleavage oxygenase, Valsa mali, SEQ ID NO: 76 (protein, listed as Valsa mali) MAHIFDIAPAVKGYASGRLAKPGDATTFPDTDVFRGINKPSRFEGDIFDLEVTGTIPKDIDGTFYRVQPDHRFPPLFEDDIHFNGDGSVTAIRISNGHADFKQRYVQTDRYKAETAARRSLFGRYRNPWTDNESVKGVIRTASNTNVTFWRGILLASKEDGPPFAMDPVTLETLGRYDFEGQIKAPTFTAHPKFDPDTGEMLCFAYEAGGDGNDGSCDVVVWTVDADGKKTEECWYKAPFAGMIHDMAVSKNFVVLPLTPLKVNMDRMKKGGEKFAWDPKEDQYYGLVPRRNAKPEDIRWFRADNGMAPFLKTLSTHCADTPASSAFQGHIAGCYENEEGHVVVDLTVADGNVFFWWPPDDGTAIPPGKKPNQLSSTTTRWILDPKAETNTRITPAYVWPTNGEFSRIDDRFVTKKYKHFWQAKVDPTRPYDFAKCGPPAGGLFNCLGHYTWSPDNPLAKGEEDVFFFGPTATVQEPSFIPKDEGGEGDGYLIALVNHLDVLRNDIAVFDAQHLAGGPLAVLHLPLKLKLGLHGNFVDHRDIEAWQRRRDAKGDVGPVKVATEPLPWQKSFWDRRQDGQNGGLNGTH | 76.0 | 4.3 | 19.7 | 71.0 | 5.5 | 23.5
2 | CO-13: alkene cleavage oxygenase, Actinobacteria bacterium, SEQ ID NO: 64 (protein, listed as Actinobacteria bacterium) MVRFPPPKDPFDAPMRVEADIRGVQVTQGEVPEHLDGIYYRCVSDRQWPSYVENDLELFNSDGMIISFRFHKGRVDFKSRYVRTPRFVAEEKAGRALFGAYRNPFDDDPSVAGISRGLANTNVFYHGGKLYASKEDSPPILLDPITLETIGEYDFEGALTSRTSTAHPKFDPITGEMVFFGYEAKGPGTPDIAYYEADASGRIIHEAWLEAPYTSMVHDWAVTQNFVVFPIIPLRSDIEWIKQGRSYFQWDPYEDVYLGVMPRKGTAKDLRWYRGSNRFASHIMGAYDDGRYIYIDTPVGQTNYFPWFPDITGAPYDPERSKGYLSRWTIDTQGESDGFTETRLCDLPGEFPRMDDRQETLPYHWGIMLLTDGPGRVAPGGGFRWLMGIDLKTGRKQIYYPGDNCTLGEAIFVPAAPDAPPGVGYVFTVVARRAEMRSDLVILDAQHIDGEPVCTLSLPMRIRMGVHGNWVSAEELARRTA | 56.4 | 26.4 | 17.2 | 45.3 | 32.4 | 22.3
3 | CO-15: alkene cleavage oxygenase, Herbaspirillum sp., SEQ ID NO: 74 (protein, listed as Herbaspirillum sp.) MNIRFSNNDFKSFEAPMRAEIELTGLEVVQGKVPKNLEGGFFRLIGDRKWPAFVDNDVFMLNEDGMASCFYFKDGKVDFRMRYVRTPRFVAEEKAGRALFGHYRNPFSDDPSVAGLSRGTANVTMLMHGGKLLALKEDSPAIELNPFTLETIGEYDWNGKVTAKAITAHPKIDAKTGELVFFGYCAAGPATRDIAYYEADSEGNVTHETWFHAPYTCMVHDIMVTQNYVVFPITPLRHELEWIKRSEPAFKWDPHESVYLGVLPRKGRGDQIRWFKGPNQCHGHTVGAYDDGRYIYADNTFSKRSFFHFFPNVDGSQFKPTDAMPYMKRVVIDMERSDNSFVEQPLFEYPCELPRIDTRFETLPYSFATMNLLDVPGQERVGRGFQWIATMDVNGAKPSKILYAGDNCSIGEPQFVPAHDNAAEGDGYIMTVVGRHEQMRSELLILDASDINAPPVATVALPFRLRSTGHGYWYGGRQLRGETNFPGAW | 68.3 | 13.5 | 18.2 | 61.2 | 16.5 | 22.2
